What is called pKd is the Kd on a negative log10 scale, so that one unit is a factor of ten. For orientation: koff means the rate constant with which the complex falls apart. One may read the kon as the second-order rate constant of association. Usually EC50 (read off the curve) stands for the concentration needed to bring the measured effect to its halfway point. Low values mean an effect from little substance, high ones a need for much substance.

pKd: −log10 of the molar value.

The values below come from US20250388652A1.

Experiment [1] concerns the target F protein mutant RSV-DS-Cav1-B with a DS-Cav1 structure before fusion (respiratory syncytial virus subtype B, strain 18537) (UniProt P13843).
Experiment [2] has the same target. The source holds these as a separate data set.

Sequence of anti-RSV monoclonal antibody Nirsevimab (MEDI8897) (VH): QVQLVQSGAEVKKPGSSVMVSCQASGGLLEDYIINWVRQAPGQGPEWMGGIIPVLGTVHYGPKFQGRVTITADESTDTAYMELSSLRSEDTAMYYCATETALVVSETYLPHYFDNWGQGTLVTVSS
Sequence of anti-RSV monoclonal antibody Nirsevimab (MEDI8897) (VL): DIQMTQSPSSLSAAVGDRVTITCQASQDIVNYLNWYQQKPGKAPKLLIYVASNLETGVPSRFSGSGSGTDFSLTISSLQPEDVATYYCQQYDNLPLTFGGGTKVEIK
Sequence of anti-RSV monoclonal antibody Clesrovimab (RB1) (VH): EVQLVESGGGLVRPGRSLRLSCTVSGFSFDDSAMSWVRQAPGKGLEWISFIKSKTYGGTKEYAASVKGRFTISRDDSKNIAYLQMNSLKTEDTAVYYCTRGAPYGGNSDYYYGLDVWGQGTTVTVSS
Sequence of anti-RSV monoclonal antibody Clesrovimab (RB1) (VL): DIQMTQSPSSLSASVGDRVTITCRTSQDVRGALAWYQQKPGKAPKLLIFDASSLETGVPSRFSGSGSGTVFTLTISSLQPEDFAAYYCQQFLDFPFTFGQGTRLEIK

“anti-RSV monoclonal antibody Nirsevimab (MEDI8897)”: in experiment [1], the pKd was 8.51, the koff amounted to 0.000333 s⁻¹ and the kon is 108000 M⁻¹ s⁻¹. The EC50 (read off the curve) in experiment [2] amounted to 10 nM.
In experiment [1], “anti-RSV monoclonal antibody Clesrovimab (RB1)” gave a pKd of 11.05, a koff of 8.21e-05 s⁻¹ and a kon of 9.17e+06 M⁻¹ s⁻¹.
